In patent US20040266664:

Assays:
[1] = system: T1, Ac-IVL-Ex
T1 sequence: IVL

[2] = system: T2, Ac-PPFL-Ex
T2 sequence: XPFX

[3] = system: T3, N-acetyl-piperidinecarbonyl-PFL-Ex
T3 sequence: PFL

[4] = system: T4, Ac-LFLL-epoxide
T4 sequence: XFLX

[5] = system: T5, tetraleucine α′,β′-epoxide
T5 sequence: LLLL

[6] = system: T6, Ac-LLFL-epoxide
T6 sequence: XLFX

[7] = system: T7, monoleucine α′,β′-epoxide
T7 sequence: L

[8] = system: T8, Ac-LALL-epoxide
T8 sequence: XALX

[9] = system: T9, Pyrazinecarbonyl-PFL-Ex
T9 sequence: PFL

[10] = system: T10, trileucine α′,β′-epoxide
T10 sequence: LLL

[11] = system: T11, tetrapeptide epoxide with P4 phenyl, other side chains leucine
T11 sequence: FLLL

[12] = system: T12, Ac-GGPFL-Ex
T12 sequence: XGPFX

[13] = system: T13, Eponemycin
T13 sequence: SL

[14] = system: T14, Ac-LLAL-epoxide
T14 sequence: XLAX

[15] = system: T15, compound 16
T15 sequence: XLFX

[16] = system: T16, Ac-GPFL-Ex
T16 sequence: XPFX

[17] = system: T17, compound 18
T17 sequence: XLFX

[18] = system: T18, tetrapeptide epoxide with P4 methylphenyl, other side chains leucine
T18 sequence: XLLL

[19] = system: T19, dileucine α′,β′-epoxide
T19 sequence: LL

[20] = system: T20, tetrapeptide epoxide with P3 1-naphthyl, other side chains leucine
T20 sequence: LXLL

[21] = system: NLVS
[22] = system: T21, Ac-AVL-Ex
T21 sequence: AVL

[23] = system: T22, Ac-ALLL-epoxide
T22 sequence: XLLX

[24] = system: T23, Ac-NorLPFL-Ex
T23 sequence: XPFX

[25] = system: T24, tetrapeptide epoxide with P2 1-naphthyl, other side chains leucine
T24 sequence: LLXL

[26] = system: T25, tetrapeptide epoxide with P4 1-naphthyl, other side chains leucine
T25 sequence: XLLL

[27] = system: T26, Ac-PFL-Ex
T26 sequence: PFL

[28] = system: T27, Isooctanioc-PFL-Ex
T27 sequence: PFL

[29] = system: T28, Benzoylbenzoic-PFL-Ex
T28 sequence: PFL

[30] = system: T29, tetrapeptide epoxide with P4 p-benzoylphenyl, other side chains leucine
T29 sequence: XLLL

[31] = system: T30, N-dimethylaminobenzoyl-PFL-EX
T30 sequence: PFL

## purified bovine erythrocyte 20S proteasome
[1]
  kobs/[I], PGPH activity: 14.6 M⁻¹ s⁻¹
  kobs/[I], chymotrypsin-like activity: 5 M⁻¹ s⁻¹
  kobs/[I], trypsin-like activity: 6.7 M⁻¹ s⁻¹
[2]
  kobs/[I], PGPH activity: 10.6 M⁻¹ s⁻¹
  kobs/[I], chymotrypsin-like activity: 6.4 M⁻¹ s⁻¹
  kobs/[I], trypsin-like activity: NI
[3]
  kobs/[I], PGPH activity: 45.3 M⁻¹ s⁻¹
  kobs/[I], chymotrypsin-like activity: 31.2 M⁻¹ s⁻¹
  kobs/[I], trypsin-like activity: NI
[4]
  kobs/[I], PGPH activity (Z-LLE-AMC): not measurable
  kobs/[I], chymotrypsin-like activity (Suc-LLVY-AMC): 8500 M⁻¹ s⁻¹
  kobs/[I], tryptic-like activity (Boc-LRR-AMC): not measurable
[5]
  kobs/[I], PGPH activity: 9.2 (100-160 µM)
  kobs/[I], chymotrypsin-like activity: 14,000 (50-150 nm)
  kobs/[I], trypsin-like activity: †
[6]
  kobs/[I], PGPH activity (Z-LLE-AMC): not measurable
  kobs/[I], chymotrypsin-like activity (Suc-LLVY-AMC): 54000 M⁻¹ s⁻¹
  kobs/[I], tryptic-like activity (Boc-LRR-AMC): not measurable
[7]
  kobs/[I], PGPH activity: †
  kobs/[I], chymotrypsin-like activity: †
  kobs/[I], trypsin-like activity: †
[8]
  kobs/[I], PGPH activity (Z-LLE-AMC): 130 M⁻¹ s⁻¹
  kobs/[I], chymotrypsin-like activity (Suc-LLVY-AMC): 1300 M⁻¹ s⁻¹
  kobs/[I], tryptic-like activity (Boc-LRR-AMC): 2 M⁻¹ s⁻¹
[9]
  kobs/[I], PGPH activity: 23 M⁻¹ s⁻¹
  kobs/[I], chymotrypsin-like activity: 520 M⁻¹ s⁻¹
  kobs/[I], trypsin-like activity: 3.7 M⁻¹ s⁻¹
[10]
  kobs/[I], PGPH activity: 120 (8-12 µM)
  kobs/[I], chymotrypsin-like activity: 780 (1-2.5 µM)
  kobs/[I], trypsin-like activity: 5.1 M⁻¹ s⁻¹
[11]
  kobs/[I], PGPH activity (Z-LLE-AMC): 78 M⁻¹ s⁻¹
  kobs/[I], chymotryptic-like activity (Suc-LLVY-AMC): 37000 M⁻¹ s⁻¹
  kobs/[I], tryptic-like activity (Boc-LRR-AMC): 5.5 M⁻¹ s⁻¹
[12]
  kobs/[I], PGPH activity: 170 M⁻¹ s⁻¹
  kobs/[I], chymotrypsin-like activity: 170 M⁻¹ s⁻¹
  kobs/[I], trypsin-like activity: 1.3 M⁻¹ s⁻¹
[13]
  kobs/[I], PGPH activity: 175 M⁻¹ s⁻¹
  kobs/[I], chymotrypsin-like activity: 58 M⁻¹ s⁻¹
  kobs/[I], trypsin-like activity: 17 M⁻¹ s⁻¹
[14]
  kobs/[I], PGPH activity (Z-LLE-AMC): 20 M⁻¹ s⁻¹
  kobs/[I], chymotrypsin-like activity (Suc-LLVY-AMC): 16000 M⁻¹ s⁻¹
  kobs/[I], tryptic-like activity (Boc-LRR-AMC): 4.1 M⁻¹ s⁻¹
[15]
  kassoc = kobs/[I], PGPH activity: 21 (80-150 µM)
  kassoc = kobs/[I], trypsin-like activity: 7.1 (80-130 µM)
  kobs/[I], chymotryptic-like activity (Suc-LLVY-AMC): 183000 M⁻¹ s⁻¹
[16]
  kobs/[I], PGPH activity: 190 M⁻¹ s⁻¹
  kobs/[I], chymotrypsin-like activity: 5 M⁻¹ s⁻¹
  kobs/[I], trypsin-like activity: NI
[17]
  kassoc = kobs/[I], PGPH activity: 11 (10-150 µM)
  kassoc = kobs/[I], chymotrypsin-like activity: 5200 (0.11 µM)
  kassoc = kobs/[I], trypsin-like activity: 580 (0.5-5 µM)
[18]
  kobs/[I], PGPH activity (Z-LLE-AMC): 50 M⁻¹ s⁻¹
  kobs/[I], chymotryptic-like activity (Suc-LLVY-AMC): 63000 M⁻¹ s⁻¹
  kobs/[I], tryptic-like activity (Boc-LRR-AMC): 5.4 M⁻¹ s⁻¹
[19]
  kobs/[I], PGPH activity: †
  kobs/[I], chymotrypsin-like activity: 3.1 (100-160 µM)
  kobs/[I], trypsin-like activity: †
[20]
  kobs/[I], PGPH activity (Z-LLE-AMC): not measurable
  kobs/[I], chymotryptic-like activity (Suc-LLVY-AMC): 31000 M⁻¹ s⁻¹
  kobs/[I], tryptic-like activity (Boc-LRR-AMC): not measurable
[21]
  kassoc = kobs/[I], PGPH activity: 6.4 M⁻¹ s⁻¹
  kassoc = kobs/[I], chymotrypsin-like activity: 6790 M⁻¹ s⁻¹
  kassoc = kobs/[I], trypsin-like activity: 5.3 M⁻¹ s⁻¹
[22]
  kobs/[I], PGPH activity: 12.7 M⁻¹ s⁻¹
  kobs/[I], chymotrypsin-like activity: 10.8 M⁻¹ s⁻¹
  kobs/[I], trypsin-like activity: 1.8 M⁻¹ s⁻¹
[23]
  kobs/[I], PGPH activity (Z-LLE-AMC): 220 M⁻¹ s⁻¹
  kobs/[I], chymotrypsin-like activity (Suc-LLVY-AMC): 5300 M⁻¹ s⁻¹
  kobs/[I], tryptic-like activity (Boc-LRR-AMC): 3.8 M⁻¹ s⁻¹
[24]
  kobs/[I], PGPH activity: 115 M⁻¹ s⁻¹
  kobs/[I], chymotrypsin-like activity: 1.9 M⁻¹ s⁻¹
  kobs/[I], trypsin-like activity: NI
[25]
  kobs/[I], PGPH activity (Z-LLE-AMC): not measurable
  kobs/[I], chymotryptic-like activity (Suc-LLVY-AMC): 29000 M⁻¹ s⁻¹
  kobs/[I], tryptic-like activity (Boc-LRR-AMC): not measurable
[26]
  kobs/[I], PGPH activity (Z-LLE-AMC): not measurable
  kobs/[I], chymotryptic-like activity (Suc-LLVY-AMC): 29000 M⁻¹ s⁻¹
  kobs/[I], tryptic-like activity (Boc-LRR-AMC): not measurable
[27]
  kobs/[I], PGPH activity: 32 M⁻¹ s⁻¹
  kobs/[I], chymotrypsin-like activity: 42 M⁻¹ s⁻¹
  kobs/[I], trypsin-like activity: NI
[28]
  kobs/[I], PGPH activity: 194 M⁻¹ s⁻¹
  kobs/[I], chymotrypsin-like activity: 190 M⁻¹ s⁻¹
  kobs/[I], trypsin-like activity: NI
[29]
  kobs/[I], PGPH activity: 140 M⁻¹ s⁻¹
  kobs/[I], chymotrypsin-like activity: 8.7 M⁻¹ s⁻¹
  kobs/[I], trypsin-like activity: NI
[30]
  kobs/[I], PGPH activity (Z-LLE-AMC): not measurable
  kobs/[I], chymotryptic-like activity (Suc-LLVY-AMC): 23000 M⁻¹ s⁻¹
  kobs/[I], tryptic-like activity (Boc-LRR-AMC): not measurable
[31]
  kobs/[I], PGPH activity: 150 M⁻¹ s⁻¹
  kobs/[I], chymotrypsin-like activity: 220 M⁻¹ s⁻¹
  kobs/[I], trypsin-like activity: NI
